# Measurements from patent US20240117334A1, “FACTOR B PROTEASES” (Vertex Pharmaceuticals Incorporated, priority 2021, published 2024).
# Changes are numbered by the printed parent chain. Names may count otherwise.
# B1: chymase C22S/D175N/A226R (enzyme)
# chain: IIGGTESKPHSRPYMAYLEIVTSNGPSKFCGGFLIRRNFVLTAAHCAGRSITVTLGAHNITEEEDTWQKLEVIKQFRHPKYNTSTLHHDIMLLKLKEKASLTLAVGTLPFPSQFNFVPPGRMCRVAGWGRTGVLKPGSDTLQEVKLRLMDPQACSHFRNFDHNLQLCVGNPRKTKSAFKGDSGGPLLCAGVAQGIVSYGRSDAKPPRVFTRISHYRPWINQILQAN
# B2: chymase C22S/A220S/A226R (enzyme)
# chain: B1 chain with N159D, A203S
# B3: chymase C22S/S189T/A190S/F191S/A220L/A226R (enzyme)
# chain: B1 chain with N159D, S176T, A177S, F178S, A203L
# B4: chymase C22S/K40M/F41I/L99H/G151R/F173S/S218L/A226R (enzyme)
# chain: B1 chain with K28M, F29I, L86H, G137R, F157S, N159D, S201L
# B5: chymase C22S/K40M/F41V/L99N/G151R/F173S/S218E/A226R (enzyme)
# chain: B1 chain with K28M, F29V, L86N, G137R, F157S, N159D, S201E
# B6: chymase C22S/V138T/A190S/V213A/A226R (enzyme)
# chain: B1 chain with V125T, N159D, A177S, V196A
# B7: chymase C22S/P38Q/V138I/A226R/F228A (enzyme)
# chain: B1 chain with P26Q, V125I, N159D, F209A
# B8: chymase C22S/F41K/L99N/F173Y/D175N/S218L/A226R (enzyme)
# chain: B1 chain with F29K, L86N, F157Y, S201L
# B9: chymase C22S/K40L/L99N/F173Y/D175N/S218L/A226R (enzyme)
# chain: B1 chain with K28L, L86N, F157Y, S201L
# B10: chymase C22S/K40L/F41K/F173Y/D175N/S218L/A226R (enzyme)
# chain: B1 chain with K28L, F29K, F157Y, S201L
# B11: chymase C22S/K40L/F41K/L99N/D175N/S218L/A226R (enzyme)
# chain: B1 chain with K28L, F29K, L86N, S201L
# B12: chymase C22S/K40L/F41K/L99N/F173Y/D175N/A226R (enzyme)
# chain: B1 chain with K28L, F29K, L86N, F157Y
# B13: chymase C22S/V138A/G145D/S189T/A190S/A226R (enzyme)
# chain: B1 chain with V125A, G132D, N159D, S176T, A177S
# B14: chymase C22S/A226R/F228A (enzyme)
# chain: B1 chain with N159D, F209A
# B15: chymase C22S/V138A/S189T/A226R/F228M (enzyme)
# chain: B1 chain with V125A, N159D, S176T, F209M
# B16: chymase C22S/V138L/S189T/A190G/A226R (enzyme)
# chain: B1 chain with V125L, N159D, S176T, A177G
# B17: chymase C22S/V138S/S189T/A226R/F228M (enzyme)
# chain: B1 chain with V125S, N159D, S176T, F209M
# B18: chymase C22S/S189T/A226R/F228M (enzyme)
# chain: B1 chain with N159D, S176T, F209M
# B19: chymase C22S/V138A/A226R (enzyme)
# chain: B1 chain with V125A, N159D
# B20: chymase C22S/V138A/S189T/A226R (enzyme)
# chain: B1 chain with V125A, N159D, S176T
# B21: chymase C22S/K40M/F41R/L99N/F173Y/D175S/S218L/A226R (enzyme)
# chain: B1 chain with K28M, F29R, L86N, F157Y, N159S, S201L
# B22: chymase C22S/K40M/F41R/L99H/F173Y/D175W/S218L/A226R (enzyme)
# chain: B1 chain with K28M, F29R, L86H, F157Y, N159W, S201L
# B23: chymase C22S/K40M/F41K/F173Y/D175R/S218E/A226R (enzyme)
# chain: B1 chain with K28M, F29K, F157Y, N159R, S201E
# B24: chymase C22S/K40M/F41K/L99N/F173Y/D175R/S218T/A226R (enzyme)
# chain: B1 chain with K28M, F29K, L86N, F157Y, N159R, S201T
# B25: chymase C22S/K40L/F41K/L99Q/F173Y/D175N/S218V/A226R (enzyme)
# chain: B1 chain with K28L, F29K, L86Q, F157Y, S201V
# B26: chymase C22S/K40M/F41R/L99Q/F173Y/D175R/S218V/A226R (enzyme)
# chain: B1 chain with K28M, F29R, L86Q, F157Y, N159R, S201V
# B27: chymase C22S/K40L/F41K/L99H/F173Y/D175S/S218I/A226R (enzyme)
# chain: B1 chain with K28L, F29K, L86H, F157Y, N159S, S201I
# B28: chymase C22S/K40L/F41R/L99G/F173Y/D175R/S218V/A226R (enzyme)
# chain: B1 chain with K28L, F29R, L86G, F157Y, N159R, S201V
# B29: chymase C22S/K40L/F41R/L99H/F173Y/D175Y/S218I/A226R (enzyme)
# chain: B1 chain with K28L, F29R, L86H, F157Y, N159Y, S201I
# Biological target: Human Factor B (human) (UniProt P00751)
# Sequence (P00751 26-764 limits assumed): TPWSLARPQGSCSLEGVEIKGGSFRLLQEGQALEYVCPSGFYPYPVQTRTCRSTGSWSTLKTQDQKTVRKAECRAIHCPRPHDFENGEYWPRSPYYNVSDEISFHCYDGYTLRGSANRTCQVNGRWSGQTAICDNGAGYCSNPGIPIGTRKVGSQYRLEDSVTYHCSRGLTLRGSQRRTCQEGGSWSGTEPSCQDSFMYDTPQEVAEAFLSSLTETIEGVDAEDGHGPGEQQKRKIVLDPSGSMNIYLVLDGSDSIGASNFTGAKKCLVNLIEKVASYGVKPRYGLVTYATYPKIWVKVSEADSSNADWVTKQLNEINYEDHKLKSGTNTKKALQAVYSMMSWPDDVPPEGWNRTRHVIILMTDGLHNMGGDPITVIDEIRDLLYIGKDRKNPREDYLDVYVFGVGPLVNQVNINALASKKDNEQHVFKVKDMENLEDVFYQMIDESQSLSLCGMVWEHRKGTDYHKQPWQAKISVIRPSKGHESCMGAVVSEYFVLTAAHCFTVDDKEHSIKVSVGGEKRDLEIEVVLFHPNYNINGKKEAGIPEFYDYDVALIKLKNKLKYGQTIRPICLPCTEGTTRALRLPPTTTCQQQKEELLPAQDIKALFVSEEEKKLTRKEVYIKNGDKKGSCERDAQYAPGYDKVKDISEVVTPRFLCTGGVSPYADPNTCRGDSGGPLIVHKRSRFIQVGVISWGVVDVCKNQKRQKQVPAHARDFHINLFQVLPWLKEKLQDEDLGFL
# Test: cell-based or functional assay
Binder,fB Cleavage EC50,"fB Cleavage, 80% plasma EC50"
B1,564 nM,7.77 µM
B2,5560 nM,
B3,8140 nM,
B4,8200 nM,
B5,11800 nM,
B6,6710 nM,
B7,12400 nM,
B8,77 nM,
B9,113 nM,
B10,77 nM,
B11,295 nM,
B12,151 nM,
B13,3810 nM,
B14,5070 nM,
B15,1770 nM,
B16,4160 nM,
B17,2980 nM,
B18,1550 nM,
B19,2940 nM,
B20,4420 nM,
B21,230 nM,5.14 µM
B22,181 nM,7.21 µM
B23,203 nM,4.13 µM
B24,216 nM,4.13 µM
B25,110 nM,5.67 µM
B26,235 nM,4.07 µM
B27,101 nM,4.62 µM
B28,333 nM,8.62 µM
B29,84 nM,5.56 µM
